What was measured:
Gal4 DBD-GRIP1c = biological target: T1, Gal4 DBD-GRIP1c (Mus musculus, UniProt Q61026); assay: Reporter gene activation by Gal4 DBD-GRIP1c in transiently transfected CV-1 cells; type: cell-based; conditions: co-expression with Gal4 DBD-GRIP1c, dose-dependent
T1 construct: coding for Gal4 DBD-GRIP1c where GRIP1c is GRIP1 amino acids 1121-1462; expressed in transfected cells; host or cells: CV-1 cells
Description: A) CV-1 cells in 6-well dishes (3.3 cm diameter well) were transiently transfected with 0.5 of μg pM.GRIP1c (coding for Gal4 DBD-GRIP1c where GRIP1c is GRIP1 amino acids 1121-1462), 0.5 μg of GK1 reporter gene (luciferase gene controlled by Gal4 binding sites) (Webb, P. et al., (1998) Mol. Endocrinol. 12:1605), and 0-0.8 μg of pSG5.HA-CARM1, using Superfectin (Qiagen) according to manufacturer's protocol. Total DNA was adjusted to 2.0 μg per well with the appropriate amount of pSG5. Cell extracts were prepared approximately 48 h after transfection and assayed with Promega Luciferase Assay kit. Relative light units of luciferase activity presented are the mean and standard deviation of three transfected wells. B) CV-1 cells were transfected as in A with the indicated amount of pM.GRIP1c and zero or 0.5 μg of pSG5.HA-CARM1.
In transient transfections of CV-1 cells, Gal4 DBD-GRIP1c weakly activates expression of a reporter gene with a promoter containing Gal4 binding sites; co-expression of CARM1 enhances reporter gene activity in a dose-dependent manner and provides a maximum stimulation of more than 10-fold (FIG. 5). CARM1 expression has little if any effect on the activity of Gal4DBD alone (FIG. 6A). CARM1 also enhances the activity of full length GRIP1 fused to Gal4DBD.

histone H3 = biological target: T2, histone H3 (Bos taurus, UniProt P68432); assay: Identification of methylated amino acids in histone H3 by thin layer chromatography of the hydrolyzate; type: biochemical, calf; conditions: histone H3 methylated by CARM1, thin layer chromatography
T2 construct: A 3.2-kb partial CARM1 cDNA clone with an open reading frame of 606 amino acids (CARM1(3-608)); purchased Boehringer Mannheim; host or cells: histone H3 from calf thymus; GST-CARM1 made in E. coli BL21
Description: Histone H3 was incubated for 60 min at 30° C. in a 100 μl methylation reaction as described in FIG. 8, containing 0.024 mg/ml GST-CARM1 and 0.63 mg/ml H3. The reaction was stopped with 25 μl of 3% (v/v) trifluoroacetic acid (TFA), 15% (v/v) acetonitrile, and 100 μl was injected into a 3 cm×4.6 mm RP-300 reversed-phase guard column (Perkin Elmer-Brownlee) equilibrated with 80% solvent A (0.3% TFA in water) and 20% solvent B (0.3% TFA in acetonitrile). Methylated H3 was separated from unreacted S-adenosylmethionine using a gradient of 20-80% solvent B over 5 min at a flow rate of 1.0 ml/min. H3 eluted as a broad complex peak detected by monitoring absorbance at 214 nm. The H3 pool was reduced to dryness in a vacuum centrifuge and then subjected to acid hydrolysis in 6 N HCl at 112° C. for 20 h. […] Radioactivity in the fractions was determined by liquid scintillation counting, and peak identity was determined by comparison to derivatized standards including the three major forms of methylarginine and methyllysine. […] Radioactive spots corresponding to the positions of the three forms of methylarginine (which all separated from each other) were removed by scraping the chromatogram, and quantified by liquid scintillation counting. […]

- maximum stimulation of reporter gene activity (Gal4 DBD-GRIP1c): more than 10 fold
- radiolabel migrating with N^G,N^G-dimethylarginine (histone H3): approximately 70%
- radiolabel migrating with N^G-monomethylarginine (histone H3): 30%
B1: CARM1: novel murine protein arginine methyltransferase and transcriptional coactivator, 608 amino acids (protein, listed as Mus musculus)
chain: MAAAAATAVGPGAGSAGVAGPGGAGPCATVSVFPGARLLTIGDANGEIQRHAEQQALRLEVRAGPDAAGIALYSHEDVCVFKCSVSRETECSRVGRQSFIITLGCNSVLIQFATPHDFCSFYNILKTCRGHTLERSVFSERTEESSAVQYFQFYGYLSQQQNMMQDYVRTGTYQRAILQNHTDFKDKIVLDVGCGSGILSFFAAQAGARKIYAVEASTMAQHAEVLVKSNNLTDRIVVIPGKVEEVSLPEQVDIIISEPMGYMLFNERMLESYLHAKKYLKPSGNMFPTIGDVHLAPFTDEQLYMEQFTKANFRYQPSFHGVDLSALRGAAVDEYFRQPVVDTFDIRILMAKSVKYTVNFLEAKEGDLHRIEIPFKFHMLHSGLVHGLAFWFDVAFIGSIMTVWLSTAPTEPLTHWYQVRCLFQSPLFAKAGDTLSGTCLLIANKRQSYDISIVAQVDQTGSKSSNLLDLKNPFFRYTGTTPSPPPGSHYTSPSENMWNTGSTYNLSSGVAVAGMPTAYDLSSVIAGGSSVGHNNLIPLANTGIVNHTHSRMGSIMSTGIVQGSSGAQGGGGSSSAHYAVNNQFTMGGPAISMASPMSIPTNTMHYGS

Reference: US8247168B2, “Regulation of gene expression by protein methylation” (University of Southern California, priority 1998, dated 2012)
